Among the data in PMC2887783 (2010) are Kd, Ki and IC50 values, retold here.

B2: AIP4 PRR/WWI-IV 155-486 (protein)
chain: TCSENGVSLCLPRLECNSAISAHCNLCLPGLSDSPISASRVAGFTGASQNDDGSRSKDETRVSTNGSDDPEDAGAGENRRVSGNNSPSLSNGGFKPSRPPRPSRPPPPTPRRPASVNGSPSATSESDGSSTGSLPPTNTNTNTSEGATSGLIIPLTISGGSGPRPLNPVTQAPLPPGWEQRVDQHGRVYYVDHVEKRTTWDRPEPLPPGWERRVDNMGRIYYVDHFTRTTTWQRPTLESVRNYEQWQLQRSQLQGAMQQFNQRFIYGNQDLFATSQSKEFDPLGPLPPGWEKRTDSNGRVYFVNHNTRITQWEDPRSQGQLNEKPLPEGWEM

The target of assay [1] is B2. Description: ELISA.
Assay [2] concerns the target B2. Description: competition ELISA.
Assay [3] has as its target B2. Description: competition ELISA. The source holds these as a separate data set.
Assay [4] concerns the target AIP4 HECT domain HECT (Homo sapiens, UniProt Q96J02). Description: ELISA.

Chain of AIP4 HECT domain HECT (Q96J02 566-903): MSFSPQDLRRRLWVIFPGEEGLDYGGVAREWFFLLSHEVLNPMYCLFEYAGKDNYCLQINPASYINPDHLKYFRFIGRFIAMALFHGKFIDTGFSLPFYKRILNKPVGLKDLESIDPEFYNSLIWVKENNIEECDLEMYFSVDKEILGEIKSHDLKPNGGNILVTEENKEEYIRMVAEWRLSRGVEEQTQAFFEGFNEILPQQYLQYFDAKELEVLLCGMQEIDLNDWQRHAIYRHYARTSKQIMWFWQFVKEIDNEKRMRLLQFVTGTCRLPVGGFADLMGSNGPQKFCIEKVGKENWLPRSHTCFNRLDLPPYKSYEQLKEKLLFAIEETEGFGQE

B1: spartin 155-367 (protein)
chain: APASLSLPSQSCPAEAPPAYTPQAAEGHYTVSYGTDSGEFSSVGEEFYRNHSQPPPLETLGLDADELILIPNGVQIFFVNPAGEVSAPSYPGYLRIVRFLDNSLDTVLNRPPGFLQVCDWLYPLVPDRSPVLKCTAGAYMFPDTMLQAAGCFVGVVLSSELPEDDRELFEDLLRQMSDLRLQANWNRAEEENEFQIPGRTRPSSDQLKEASGT
As to B1, the Kd in assay [1] turned out to be 340 nM. Also, the Ki in assay [2] was found to be 210 nM. This molecule also displayed an IC50 in assay [3] of 560 nM.
For the molecule B2, the Kd in assay [4] amounted to 2000 nM. That is a single-digit micromolar value.
